According to paper doi:10.1101/2023.05.09.539743 (bioRxiv, 2023):

Biological target: T1, His-ARS2^147-871 (human, UniProt Q9BXP5-4 147-871)
T1 sequence (looked up): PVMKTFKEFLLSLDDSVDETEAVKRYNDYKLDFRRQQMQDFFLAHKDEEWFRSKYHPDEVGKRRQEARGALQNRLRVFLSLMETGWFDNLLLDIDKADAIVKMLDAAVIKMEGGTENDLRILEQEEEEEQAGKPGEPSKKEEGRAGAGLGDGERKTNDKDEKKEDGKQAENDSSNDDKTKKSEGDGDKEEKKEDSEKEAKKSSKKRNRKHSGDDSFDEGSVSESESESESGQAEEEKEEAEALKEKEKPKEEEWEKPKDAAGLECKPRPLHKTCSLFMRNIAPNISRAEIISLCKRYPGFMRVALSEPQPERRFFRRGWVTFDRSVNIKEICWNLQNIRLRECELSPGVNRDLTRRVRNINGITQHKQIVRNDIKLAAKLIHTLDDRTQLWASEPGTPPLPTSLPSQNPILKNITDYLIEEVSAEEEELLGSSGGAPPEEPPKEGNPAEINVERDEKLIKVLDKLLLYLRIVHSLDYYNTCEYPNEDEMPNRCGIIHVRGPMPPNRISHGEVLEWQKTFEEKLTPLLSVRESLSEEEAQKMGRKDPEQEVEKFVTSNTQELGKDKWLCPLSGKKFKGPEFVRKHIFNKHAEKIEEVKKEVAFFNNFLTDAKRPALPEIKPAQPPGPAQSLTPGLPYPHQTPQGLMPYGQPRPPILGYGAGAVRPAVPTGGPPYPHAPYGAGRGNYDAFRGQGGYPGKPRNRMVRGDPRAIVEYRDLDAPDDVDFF
Assay: pull-down

binding result: binds
Binder: SSGLSPKEEGELEDGEISDDDNNSQ (domain or fragment, human, UniProt O60293 11-35, looked up) [His-MBP-Z1^11-35(WT)]
